The target in assay [1] is T1, 6xHis-tagged human NGF (nerve growth factor) (human, UniProt P01138 19-241). Description: BLI.
Assay [2] addresses T1, 6xHis-tagged human NGF (nerve growth …). Description: BLI. The source holds these as a separate data set.

Results on one molecule are retold here after PMC9249326 (2022).

Bounds are passed on as bounds.

T1 sequence (P01138 122-241): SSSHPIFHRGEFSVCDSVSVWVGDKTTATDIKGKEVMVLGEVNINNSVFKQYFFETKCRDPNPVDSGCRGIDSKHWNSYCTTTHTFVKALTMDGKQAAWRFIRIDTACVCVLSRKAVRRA

B1: tanezumab (antibody, V domains shown)
VH: QVQLQESGPGLVKPSETLSLTCTVSGFSLIGYDLNWIRQPPGKGLEWIGIIWGDGTTDYNSAVKSRVTISKDTSKNQFSLKLSSVTAADTAVYYCARGGYWYATSYYFDYWGQGTLVTVSS
VL: DIQMTQSPSSLSASVGDRVTITCRASQSISNNLNWYQQKPGKAPKLLIYYTSRFHSGVPSRFSGSGSGTDFTFTISSLQPEDIATYYCQQEHTLPYTFGQGTKLEIK
The molecule B1 showed a koff in assay [1] of less than 1e-07 s⁻¹. This molecule gave a Kd in assay [2] of less than 1 pM.
